Data reported in patent US10526416B2, “Anti-HER3 antibodies and uses of same” (Yeda Research and Development Co. Ltd., priority 2014, dated 2020).

Columns and labels:
IgB3 = target: T1, IgB3 (Homo sapiens, UniProt P21860); experiment: Antibody competition assay with Lumi4(Tb)-labeled NG33 on IgB3-coated plates; format: binding; details: NG33-K2 1 nM
T1 construct: To produce IgB3 (recombinant HER3 extracellular domain fused to a human IgG Fc domain); made in house
Description: FIGS. 12A-D show a combination of two mAbs directed to two different epitopes of HER3. (FIGS. 12A and 12B) The antibodies NG33 and XC252 were labeled with the fluorescent dye Lumi4® Tb Cryptate (K2). 96 well-plate were coated with IgB3 (1.5 μg/ml), blocked with PBS-BSA and incubated for 1 h with various concentrations of mAbs under gentle shaking at RT. The labeled mAb, NG33-K2 (FIG. 12A) or XC252-K2 (FIG. 12B), was then added at 1 nM final concentration. After ah incubation, the plate was washed 4 times with KREBS buffer, and the fluorescence intensity at 610 nm was measured using a fluorescence microplate reader. (FIG. 12C) The various anti-HER3 mAb combinations were studied for their ability to trigger HER3 degradation using N87 cells. Cells were treated for 2 h at 37° C. with mAb (10 μg/ml). After cell lysis and protein extraction, the samples were subjected to immunoblotting with the indicated antibodies. (FIG. 12D) The combination's capacity to modulate NRG-induced phosphorylation of HER3, AKT and ERK was evaluated using N87 cells. After 20 min treatment at 37° C. with 10 μg/ml of mAbs, NRG (20 ng/ml) was added to the cells for 10 min. The cells were then lysed, and equal quantities of lysate protein were electrophoresed before immunoblotting, as indicated.
Agent labeling was performed by Cisbio. […] Following 1 h incubation, the plate was washed 4 times with KREBS buffer (146 mM NaCl, 4 mM KCl, 0.5 mM MgCl2, 1 mM CaCl2, 10 mM Hepes, 1 gr/L glucose, and 1 mg/mL albumin), and the fluorescent intensity (excitation: 488 nm, emission: 610 nm) was measured using a fluorescence microplate reader. […] Finally, following two washes with KREBS buffer, the fluorescence intensity was measured at 670 nm (excitation: 620 nm).
Combinations of antibodies directed against two different epitopes of the same receptor, as has been previously shown, can improve the effect of treatment with a single mAb (28, 29). […] First, it was determined which antibody from the anti-HER3 series targets an epitope distinct from that targeted by NG33. […]

[1] = tested on: phosphorylation of HER3, AKT and ERK; experiment: NRG-induced phosphorylation of HER3, AKT and ERK in N87 cells (immunoblotting); format: cell-based, human; details: mAb 10 μg/ml 20 min, then NRG 20 ng/ml
Description: (FIG. 9A) The indicated mAbs were checked for their capacity to compete with fluorescent dye labeled NRG. […] After washes, the labeled-NRG was added and incubated for 30 min at 4° C. Fluorescence intensity at 670 nm was determined following 3 final washes. (FIG. 9B) The ability of the mAbs to avoid NRG-induced phosphorylation of HER3, AKT and ERK, was studied with N87 cells. After 20 min treatment with the indicated mAbs (10 μg/ml) at 37° C., NRG (20 ng/ml) was added to the cells for 10 min. The cells were then lysed, and equal quantities of protein lysates were run on 9% bisacrylamide gel before immunoblotting with the indicated primary antibodies. (FIG. 9C) The capacity of mAb NG33 to avoid NRG-induced migration was checked with OVCAR-5 cells and the quantification reported in a histogram. […] Signals of triplicates were quantified. **** […] (ANOVA and post hoc tests).
FIGS. 12A-D show a combination of two mAbs directed to two different epitopes of HER3. […] After ah incubation, the plate was washed 4 times with KREBS buffer, and the fluorescence intensity at 610 nm was measured using a fluorescence microplate reader. […] (FIG. 12D) The combination's capacity to modulate NRG-induced phosphorylation of HER3, AKT and ERK was evaluated using N87 cells. […] The cells were then lysed, and equal quantities of lysate protein were electrophoresed before immunoblotting, as indicated. […]

T1 sequence (P21860 20-643 limits assumed): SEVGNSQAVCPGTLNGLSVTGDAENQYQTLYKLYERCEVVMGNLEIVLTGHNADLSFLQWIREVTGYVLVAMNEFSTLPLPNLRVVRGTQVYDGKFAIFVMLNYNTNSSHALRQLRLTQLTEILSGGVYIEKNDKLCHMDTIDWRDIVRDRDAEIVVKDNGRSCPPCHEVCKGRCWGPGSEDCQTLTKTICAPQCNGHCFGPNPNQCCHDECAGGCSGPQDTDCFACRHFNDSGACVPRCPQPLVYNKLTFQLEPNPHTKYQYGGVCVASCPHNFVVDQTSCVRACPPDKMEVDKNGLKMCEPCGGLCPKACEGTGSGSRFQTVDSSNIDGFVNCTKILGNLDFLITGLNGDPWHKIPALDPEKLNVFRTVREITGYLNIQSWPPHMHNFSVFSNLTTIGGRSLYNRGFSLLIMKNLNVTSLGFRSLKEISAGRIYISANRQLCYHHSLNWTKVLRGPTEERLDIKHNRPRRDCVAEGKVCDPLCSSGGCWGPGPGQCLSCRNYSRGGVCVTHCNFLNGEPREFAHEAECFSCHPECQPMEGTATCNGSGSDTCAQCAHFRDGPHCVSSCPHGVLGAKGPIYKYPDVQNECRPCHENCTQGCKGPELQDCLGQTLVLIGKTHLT
T1 sequence (P01857 99-330 partner limits assumed): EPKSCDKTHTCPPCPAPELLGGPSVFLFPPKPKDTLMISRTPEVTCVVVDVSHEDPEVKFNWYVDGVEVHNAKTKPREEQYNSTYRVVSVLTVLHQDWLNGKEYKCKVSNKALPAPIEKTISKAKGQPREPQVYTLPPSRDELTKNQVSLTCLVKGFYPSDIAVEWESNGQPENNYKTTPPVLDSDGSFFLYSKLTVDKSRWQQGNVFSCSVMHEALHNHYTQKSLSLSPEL

B1: NG83: anti-HER3 mAb; light chain CDRs SEQ ID NOs: 7-9, heavy chain CDRs 10-12 (antibody, V domains shown)
VH: QIQLVQSGPELKKRGETVKISCKASGYTFTNYGMNWVRQAPGKGLKCMGWINTYAGEPTYADDFKGRFAFSLDSSASTAYLQINNLKNEDMATYFCARGGITGAMDYWGQGTSVTVSS
VL: DVVMTQKTSSLSTSLGDRVTISCRASQDIRNYLNWYQQKPDGTVKLLIYYTSRLHSGVPSRFSGSGSGTDYSLTISDLEQEDIATYFCQQGNTLPWTFGGGTKLAIK
modifications: VH chain of NG83 polypeptide; VL chain of NG83 polypeptide
With B1 the “effect on binding of Lumi4(Tb)-labeled NG33 to IgB3” value (IgB3) was “potentiated NG33 binding to IgB3”.

B2: XC252: anti-HER3 mAb generated as described in Chen X, et al. (1996); heavy and light chain SEQ ID NOs: 49 and 53 (antibody, V domains shown)
VH: EVQLQQSGAELVRPGVSVKISCKGSGYTFTDYAMHWVKQSHAKSLEWIGVISTYYGDPRDNQKFKGKATMTVDKSSSTAYMELARLTSEDSAIYYCARGDYDWYAIDYWGQGTSVTVSS
VL: DVVMTQTPLSLPVSLGDQASISCRSSQSIVHSDGNTYLEWYLQKPGQSPKLLIYKVSNRFSGVPDRFSGSGSGTDFTLKISRVEAEDLGVYYCFQGSHVPPTFGGGTKLEIK
modifications: VH chain of XC252 polypeptide; VL chain of XC252 polypeptide
In the case of B2, the “effect on NRG-induced HER3 phosphorylation and AKT and ERK activation” value [1] is reported as “partly decrease the phosphorylation level of HER3” and the “effect on binding of Lumi4(Tb)-labeled NG33 to IgB3” value (IgB3) is reported as “did not alter NG33 binding”.
